PMC11009875

Tests used:
[1] = target: microtubules (bovine tubulin, Taxol-stabilised) (bovine) (UniProt Q6B856); test: optical trapping, unloaded single molecule bead assay with video tracking
[2] = target: microtubules (bovine tubulin, Taxol-stabilised) (bovine) (UniProt Q6B856); test: optical trapping, rupture assay
[3] = target: subtilisin-digested microtubules (E-hook removed) (bovine) (UniProt Q6B856); test: optical trapping, rupture assay

UniProt Q6B856, sequence (Q6B856 whole entry, looked up): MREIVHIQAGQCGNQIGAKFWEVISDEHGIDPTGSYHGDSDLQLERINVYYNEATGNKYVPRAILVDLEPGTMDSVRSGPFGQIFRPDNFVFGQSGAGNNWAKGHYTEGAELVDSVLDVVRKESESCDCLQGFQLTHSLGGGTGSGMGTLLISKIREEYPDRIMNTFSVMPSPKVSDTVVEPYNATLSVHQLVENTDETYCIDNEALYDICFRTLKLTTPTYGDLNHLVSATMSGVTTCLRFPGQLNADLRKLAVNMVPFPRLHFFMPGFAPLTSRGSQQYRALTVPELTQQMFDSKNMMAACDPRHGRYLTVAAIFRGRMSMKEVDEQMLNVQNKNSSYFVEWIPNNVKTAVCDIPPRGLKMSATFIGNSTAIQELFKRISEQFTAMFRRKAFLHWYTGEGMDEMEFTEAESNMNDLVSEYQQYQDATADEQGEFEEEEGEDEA

Row | percent of beads binding [1] [%] | bond lifetime (double Gaussian, first population) [2] [s] | bond lifetime (double Gaussian, second population) [2] [s] | force at rupture (first population) [2] [pN] | force at rupture (second population) [2] [pN] | lifetime time constant k^-1 (single exponential fit) [2] [s] | bond lifetime (single Gaussian) [3] [s] | Binder
1 | 11 |  |  |  |  |  |  | FL-HSET (full-length kinesin-14 HSET/KIFC1) (natural protein) MDPQRSPLLEVKGNIELKRPLIKAPSQLPLSGSRLKRRPDQMEDGLEPEKKRTRGLGATTKITTSHPRVPSLTTVPQTQGQTTAQKVSKKTGPRCSTAIATGLKNQKPVPAVPVQKSGTSGVPPMAGGKKPSKRPAWDLKGQLCDLNAELKRCRERTQTLDQENQQLQDQLRDAQQQVKALGTERTTLEGHLAKVQAQAEQGQQELKNLRACVLELEERLSTQEGLVQELQKKQVELQEERRGLMSQLEEKERRLQTSEAALSSSQAEVASLRQETVAQAALLTEREERLHGLEMERRRLHNQLQELKGNIRVFCRVRPVLPGEPTPPPGLLLFPSGPGGPSDPPTRLSLSRSDERRGTLSGAPAPPTRHDFSFDRVFPPGSGQDEVFEEIAMLVQSALDGYPVCIFAYGQTGSGKTFTMEGGPGGDPQLEGLIPRALRHLFSVAQELSGQGWTYSFVASYVEIYNETVRDLLATGTRKGQGGECEIRRAGPGSEELTVTNARYVPVSCEKEVDALLHLARQNRAVARTAQNERSSRSHSVFQLQISGEHSSRGLQCGAPLSLVDLAGSERLDPGLALGPGERERLRETQAINSSLSTLGLVIMALSNKESHVPYRNSKLTYLLQNSLGGSAKMLMFVNISPLEENVSESLNSLRFASKVNQCVIGTAQANRK
2 |  | 0.29 | 1 | 2.1 | 5.6 | 0.23 | 0.22 | HSET-ΔM (no motor; EGFP-HSET aa 1-304, tail-stalk) (domain or fragment) MDPQRSPLLEVKGNIELKRPLIKAPSQLPLSGSRLKRRPDQMEDGLEPEKKRTRGLGATTKITTSHPRVPSLTTVPQTQGQTTAQKVSKKTGPRCSTAIATGLKNQKPVPAVPVQKSGTSGVPPMAGGKKPSKRPAWDLKGQLCDLNAELKRCRERTQTLDQENQQLQDQLRDAQQQVKALGTERTTLEGHLAKVQAQAEQGQQELKNLRACVLELEERLSTQEGLVQELQKKQVELQEERRGLMSQLEEKERRLQTSEAALSSSQAEVASLRQETVAQAALLTEREERLHGLEMERRRLHNQL
